Assay results taken from the supplement of paper PMC9112550, “Optimization of the antimicrobial peptide Bac7 by deep mutational scanning” (BMC Biology, 2022).

Tested on: Escherichia coli TOP10
Assay: shrunken log2 fold change of peptide-encoding DNA abundance (4.5 h post-induction vs induction); higher = less antimicrobial activity (less host growth inhibition)
Settings: time post-induction: 4.5 h; library: site-saturation at positions 5, 18, 19, 20
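Further: peptides expressed intracellularly from a pBAD plasmid library in pooled LB shake-flask culture, induced with 0.3% L-arabinose, DNA abundance read by NGS, three biological replicates, DESeq2 with apeglm shrinkage.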

Sequence	shrunken log2 fold change
RRIRERPPRLPRPRPRPNYVPRP	-0.931
RRIRERPPRLPRPRPRPPAAPRP	0.252
RRIRERPPRLPRPRPRPPADPRP	0.152
RRIRERPPRLPRPRPRPPAMPRP	-0.186
RRIRERPPRLPRPRPRPPAQPRP	0.0318
RRIRERPPRLPRPRPRPPASPRP	0.127
RRIRERPPRLPRPRPRPPDTPRP	-0.426
RRIRERPPRLPRPRPRPPELPRP	0.102
RRIRERPPRLPRPRPRPPESPRP	0.16
RRIRERPPRLPRPRPRPPEWPRP	-0.0429
RRIRERPPRLPRPRPRPPFGPRP	0.577
RRIRERPPRLPRPRPRPPGVPRP	0.232
RRIRERPPRLPRPRPRPPHGPRP	0.19
RRIRERPPRLPRPRPRPPIIPRP	-0.562
RRIRERPPRLPRPRPRPPIPPRP	0.281
RRIRERPPRLPRPRPRPPMAPRP	0.149
RRIRERPPRLPRPRPRPPNFPRP	-0.329
RRIRERPPRLPRPRPRPPQEPRP	0.192
RRIRERPPRLPRPRPRPPRTPRP	0.316
RRIRERPPRLPRPRPRPPRYPRP	-0.202
RRIRERPPRLPRPRPRPPSCPRP	0.103
RRIRERPPRLPRPRPRPPSPPRP	-0.0326
RRIRERPPRLPRPRPRPPSYPRP	-0.0583
RRIRERPPRLPRPRPRPPTSPRP	0.0163
RRIRERPPRLPRPRPRPPTTPRP	0.322

Sequence	shrunken log2 fold change
RRIRERPPRLPRPRPRPPVDPRP	0.125
RRIRERPPRLPRPRPRPPVIPRP	-0.257
RRIRERPPRLPRPRPRPPWIPRP	-0.042
RRIRERPPRLPRPRPRPPYHPRP	-0.456
RRIRERPPRLPRPRPRPPYSPRP	-0.102
RRIRERPPRLPRPRPRPQAYPRP	-0.131
RRIRERPPRLPRPRPRPQFVPRP	-0.312
RRIRERPPRLPRPRPRPQGIPRP	-0.044
RRIRERPPRLPRPRPRPQGYPRP	0.0039
RRIRERPPRLPRPRPRPQHIPRP	-0.15
RRIRERPPRLPRPRPRPQHVPRP	-0.356
RRIRERPPRLPRPRPRPQKPPRP	0.0657
RRIRERPPRLPRPRPRPQKQPRP	-0.0621
RRIRERPPRLPRPRPRPQKWPRP	-0.473
RRIRERPPRLPRPRPRPQLDPRP	0.115
RRIRERPPRLPRPRPRPQLLPRP	-0.324
RRIRERPPRLPRPRPRPQMAPRP	0.00684
RRIRERPPRLPRPRPRPQMIPRP	0.132
RRIRERPPRLPRPRPRPQNSPRP	-0.505
RRIRERPPRLPRPRPRPQQCPRP	-0.0909
RRIRERPPRLPRPRPRPQQDPRP	-0.108
RRIRERPPRLPRPRPRPQRQPRP	0.0791
RRIRERPPRLPRPRPRPQSRPRP	0.00145
RRIRERPPRLPRPRPRPQTPPRP	0.0694
RRIRERPPRLPRPRPRPQVIPRP	-0.125

Sequence	shrunken log2 fold change
RRIRERPPRLPRPRPRPQVLPRP	-0.0121
RRIRERPPRLPRPRPRPQWLPRP	-0.168
RRIRERPPRLPRPRPRPQYAPRP	-0.158
RRIRERPPRLPRPRPRPRAHPRP	0.352
RRIRERPPRLPRPRPRPRCHPRP	-0.464
RRIRERPPRLPRPRPRPRDQPRP	0.424
RRIRERPPRLPRPRPRPREIPRP	0.214
RRIRERPPRLPRPRPRPRFMPRP	-0.0944
RRIRERPPRLPRPRPRPRFVPRP	-0.373
RRIRERPPRLPRPRPRPRGPPRP	0.662
RRIRERPPRLPRPRPRPRHGPRP	-0.467
RRIRERPPRLPRPRPRPRHNPRP	-0.137
RRIRERPPRLPRPRPRPRKAPRP	0.444
RRIRERPPRLPRPRPRPRKRPRP	0.255
RRIRERPPRLPRPRPRPRLQPRP	0.0143
RRIRERPPRLPRPRPRPRLYPRP	-0.448
RRIRERPPRLPRPRPRPRNHPRP	-0.367
RRIRERPPRLPRPRPRPRQNPRP	0.177
RRIRERPPRLPRPRPRPRRAPRP	0.566
RRIRERPPRLPRPRPRPRRNPRP	-0.0448
RRIRERPPRLPRPRPRPRSFPRP	-0.331
RRIRERPPRLPRPRPRPRSLPRP	-0.0254
RRIRERPPRLPRPRPRPRTQPRP	0.111
RRIRERPPRLPRPRPRPRTYPRP	-0.517
RRIRERPPRLPRPRPRPRVIPRP	0.0506

Sequence	shrunken log2 fold change
RRIRERPPRLPRPRPRPRWGPRP	0.239
RRIRERPPRLPRPRPRPRWIPRP	1.93
RRIRERPPRLPRPRPRPRWLPRP	0.108
RRIRERPPRLPRPRPRPRWPPRP	0.486
RRIRERPPRLPRPRPRPRYLPRP	-0.452
RRIRERPPRLPRPRPRPRYPPRP	0.00273
RRIRERPPRLPRPRPRPSADPRP	-0.625
RRIRERPPRLPRPRPRPSDGPRP	-0.166
RRIRERPPRLPRPRPRPSDRPRP	-0.165
RRIRERPPRLPRPRPRPSFWPRP	0.132
RRIRERPPRLPRPRPRPSHAPRP	-0.0485
RRIRERPPRLPRPRPRPSHIPRP	-0.25
RRIRERPPRLPRPRPRPSHKPRP	-0.437
RRIRERPPRLPRPRPRPSIMPRP	-1.02
RRIRERPPRLPRPRPRPSKMPRP	-0.141
RRIRERPPRLPRPRPRPSKQPRP	0.0844
RRIRERPPRLPRPRPRPSKSPRP	-0.688
RRIRERPPRLPRPRPRPSKWPRP	-0.241
RRIRERPPRLPRPRPRPSLWPRP	-0.151
RRIRERPPRLPRPRPRPSMEPRP	-0.14
RRIRERPPRLPRPRPRPSPSPRP	-0.269
RRIRERPPRLPRPRPRPSPVPRP	-0.268
RRIRERPPRLPRPRPRPSQKPRP	0.0497
RRIRERPPRLPRPRPRPSRYPRP	-0.481
RRIRERPPRLPRPRPRPSTRPRP	-0.232

Sequence	shrunken log2 fold change
RRIRERPPRLPRPRPRPSWYPRP	-1
RRIRERPPRLPRPRPRPSYWPRP	-0.266
RRIRERPPRLPRPRPRPSYYPRP	-0.126
RRIRERPPRLPRPRPRPTAGPRP	0.161
RRIRERPPRLPRPRPRPTAVPRP	-0.113
RRIRERPPRLPRPRPRPTCKPRP	-0.0222
RRIRERPPRLPRPRPRPTCNPRP	-0.315
RRIRERPPRLPRPRPRPTDWPRP	-0.145
RRIRERPPRLPRPRPRPTFIPRP	-0.291
RRIRERPPRLPRPRPRPTHDPRP	-0.141
RRIRERPPRLPRPRPRPTIAPRP	-0.25
RRIRERPPRLPRPRPRPTKKPRP	0.0853
RRIRERPPRLPRPRPRPTKQPRP	-0.275
RRIRERPPRLPRPRPRPTMSPRP	-0.217
RRIRERPPRLPRPRPRPTMVPRP	0.0432
RRIRERPPRLPRPRPRPTPGPRP	0.337
RRIRERPPRLPRPRPRPTPSPRP	0.14
RRIRERPPRLPRPRPRPTRLPRP	0.576
RRIRERPPRLPRPRPRPTSAPRP	0.153
RRIRERPPRLPRPRPRPTSEPRP	0.0668
RRIRERPPRLPRPRPRPTSNPRP	-0.504
RRIRERPPRLPRPRPRPTVRPRP	-0.00266
RRIRERPPRLPRPRPRPTYTPRP	-0.756
RRIRERPPRLPRPRPRPVCHPRP	-0.309
RRIRERPPRLPRPRPRPVCMPRP	-0.164

Sequence	shrunken log2 fold change
RRIRERPPRLPRPRPRPVCYPRP	-0.266
RRIRERPPRLPRPRPRPVFCPRP	-0.0447
RRIRERPPRLPRPRPRPVFLPRP	-0.474
RRIRERPPRLPRPRPRPVFQPRP	-0.0545
RRIRERPPRLPRPRPRPVHGPRP	-0.152
RRIRERPPRLPRPRPRPVHSPRP	-0.0947
RRIRERPPRLPRPRPRPVIIPRP	-0.634
RRIRERPPRLPRPRPRPVITPRP	-0.145
RRIRERPPRLPRPRPRPVIWPRP	0.254
RRIRERPPRLPRPRPRPVKDPRP	-0.189
RRIRERPPRLPRPRPRPVKLPRP	-0.0426
RRIRERPPRLPRPRPRPVLGPRP	-0.101
RRIRERPPRLPRPRPRPVLMPRP	0.0559
RRIRERPPRLPRPRPRPVMWPRP	0.0878
RRIRERPPRLPRPRPRPVQFPRP	-0.0474
RRIRERPPRLPRPRPRPVQLPRP	-0.329
RRIRERPPRLPRPRPRPVRGPRP	0.543
RRIRERPPRLPRPRPRPVRPPRP	0.849
RRIRERPPRLPRPRPRPVRTPRP	0.496
RRIRERPPRLPRPRPRPVSPPRP	-0.33
RRIRERPPRLPRPRPRPVTCPRP	-0.204
RRIRERPPRLPRPRPRPVWHPRP	-0.154
RRIRERPPRLPRPRPRPVWMPRP	-0.0846
RRIRERPPRLPRPRPRPVYHPRP	-1.35
RRIRERPPRLPRPRPRPVYTPRP	-0.146
